This is an account of results in article PMC11464796.

For this experiment, the target named is Msm RNAP core, recombinant (α, ω, β–β′ fusion with C-terminal His8) (Mycobacterium smegmatis) (UniProt A0QSL8).

B1: Msm HelD, wild type, recombinant tag-less (enzyme)
chain: MSGRDYEDELQSERDYVAGLYARLDAERAQSQRRYAAALREHGGTAVERDAEVRALAKDIARLNVADNGLCFGRLDTLDDARLYIGRLGIFDRDNDFEPLLLDWRAPMARPFYVATAANPENMRRRRQFHTLGRKVVDFTDEILGRPTGAEHDATNDAALLAAVNAPRGEGMRDIVATIQAEQDQVIRLDHTGVLVIEGGPGTGKTVVALHRVAYLLYTYRKQMERHGVLVVGPTPAFLDHIGRVLPSLGESDAVFMTPGDFVPGLHVTAEDTPEAAEVKGSLKILDVLKAAVADRQELPSEPIPIDLSDVTMRIDAETAKWARDEARKTGLPHNEARAEFVDVVTYVVTERAVARIGRGWLTRDDKHAWEKMRADVVGELEDHEQFNAALDALWPILTPEDVLAQLYTSHERLRAAGAPECLWRADGEAWTVSDVPLLDELVDLLGRNKAADEAAERERREEEAYAAGVLDLMVDREDLMDDEDHLLAQDLIDAEELADRFKEQDNRELSERAAADREWTYGHVVVDEAQELSEMDWRLLMRRCPRRSFTIVGDLAQRRSPAGARSWGAMLDSYVPGRWVYKSLSVNYRTPAEIMAVAAAVLAEFAPDATPPDSVRACGVAPWARQVTDDDIASAIAEFVSEEAGREGTSVVIGPPDVPGTVPPSETKGLEFDAVLVVEPERILADGPRGAAELYVALTRATQRLGVLYRDALPQALAGLAEGDAAATVEQRTSA
For the molecule B1, the ATPase activity of the HelD–core and HelD–holoenzyme complexes against free HelD turned out to be 2.5 fold.
